# In US20100003195A1 (published 2010):
# T1: human KDR-Fc chimeric fusion (R&D Systems #357-KD-05) (human, UniProt P35968 20-764)
# T1 chain: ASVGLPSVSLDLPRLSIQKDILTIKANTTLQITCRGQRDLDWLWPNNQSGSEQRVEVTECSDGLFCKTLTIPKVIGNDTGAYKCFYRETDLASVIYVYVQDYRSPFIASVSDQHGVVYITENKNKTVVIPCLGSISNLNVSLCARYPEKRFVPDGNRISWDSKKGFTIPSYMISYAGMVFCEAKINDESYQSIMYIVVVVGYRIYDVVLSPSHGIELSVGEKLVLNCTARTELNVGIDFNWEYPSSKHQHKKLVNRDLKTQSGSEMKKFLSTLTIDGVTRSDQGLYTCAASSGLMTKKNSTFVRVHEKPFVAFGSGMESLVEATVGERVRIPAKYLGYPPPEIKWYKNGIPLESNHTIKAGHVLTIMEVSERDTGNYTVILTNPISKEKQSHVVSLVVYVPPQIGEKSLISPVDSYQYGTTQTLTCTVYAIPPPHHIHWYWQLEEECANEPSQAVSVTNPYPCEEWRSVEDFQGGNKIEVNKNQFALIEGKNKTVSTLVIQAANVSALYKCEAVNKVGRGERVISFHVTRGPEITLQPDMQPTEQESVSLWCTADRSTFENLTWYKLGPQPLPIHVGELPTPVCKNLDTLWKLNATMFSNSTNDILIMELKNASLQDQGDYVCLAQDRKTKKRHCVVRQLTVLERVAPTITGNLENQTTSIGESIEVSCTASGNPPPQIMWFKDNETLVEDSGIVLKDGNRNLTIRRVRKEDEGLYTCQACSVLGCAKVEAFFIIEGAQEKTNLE
# Target: T1, human KDR-Fc chimeric fusion (R&D …)
# Test: -; KD, B
row,Binder,Kd [nM]
1,VCWEDSWGGEVCFGGGK [VCWEDSWGGEVCFGGGK (SEQ ID NO: 368)],910
2,SRVCWEDSWGGEVCFRYGGGGK [SRVCWEDSWGGEVCFRYGGGGK (SEQ ID NO: 371)],35
3,GDSRVCWEDSWGGEVCFGGGK [GDSRVCWEDSWGGEVCFGGGK (SEQ ID NO: 369)],1300
